Source: patent publication CN113416248A (INST MILITARY MEDICINE ACADEMY MILITARY SCIENCES PLA, dated 2021)

Target: T1, 金黄色葡萄球菌B型肠毒素(SEB)抗原 (Staphylococcus aureus enterotoxin B) (Staphylococcus aureus, UniProt P01552 28-266)
T1 sequence: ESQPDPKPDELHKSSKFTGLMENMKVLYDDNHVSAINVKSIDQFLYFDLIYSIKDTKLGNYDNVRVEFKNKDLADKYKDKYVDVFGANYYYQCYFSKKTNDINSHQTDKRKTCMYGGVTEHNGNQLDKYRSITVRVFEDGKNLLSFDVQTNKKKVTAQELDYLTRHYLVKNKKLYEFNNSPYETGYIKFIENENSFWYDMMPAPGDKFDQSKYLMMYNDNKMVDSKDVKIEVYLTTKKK
Experiment: monoclonal phage ELISA on coated SEB antigen, anti-M13-HRP, OD450

B1: 抗肠毒素的纳米抗体 (anti-SEB nanobody, heavy chain variable region SEQ ID NO: 8) (VHH)
VHH: QVQLVESGGGSVQAGASLTLSCVVSVRTDSYAMGWMRQAPGKEREVIAGVSWSGQSTTYADSVKGRFTISRDNAKRAVYLQMGNLKPEDTAVYYCAMGRAPFYIGLTSEPEAYESWGQGTQVTVSL
- binding result: binds
